Results taken from article PMC3781837.

Molecular target: WhiA (Streptomyces venezuelae) (UniProt F2RGQ4)
Assay: DNase I footprinting
Settings: DNase I footprinting per Sure Track kit (Amersham); buffer, salt, pH and temperature not given in the material

UniProt F2RGQ4, sequence (F2RGQ4 whole entry): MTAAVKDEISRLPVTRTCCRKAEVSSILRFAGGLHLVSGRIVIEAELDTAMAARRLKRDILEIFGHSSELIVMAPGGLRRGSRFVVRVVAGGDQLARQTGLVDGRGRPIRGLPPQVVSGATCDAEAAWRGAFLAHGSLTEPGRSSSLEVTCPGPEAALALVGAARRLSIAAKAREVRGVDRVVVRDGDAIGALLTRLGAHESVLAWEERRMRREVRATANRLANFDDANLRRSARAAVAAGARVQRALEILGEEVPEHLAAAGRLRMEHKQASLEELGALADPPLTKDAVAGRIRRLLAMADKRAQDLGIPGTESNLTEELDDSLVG

Sequence	binding
AGCATCCGGTGCACCCTCCCAGTGTCGCACCCGAAGGTGTCGAATCCCGGGAGTGGGCCCGCCGCGACACGCGGAGGGCCCGGAATCGCCTTTAACCCAAGATCTAGTGGTTGGATGGCATCGG (double strand) [nrdR promoter probe]	binds
CCGGAATTCCCACTCAAAAGGCTGGACATTCTCCAGATCAAACGGGCATACGCTCGATGACACGCCGCTTCGGCCCCTAGGATTCCCTCTAACACCTCACCGGTCTCATTCGACAGGAAACCCATGAGCGACACATCCTCCCCCTTCGGCTTCGAGCTCGTGCGGCGCGGTTAGGATCCGCG (double strand) [filP promoter probe]	binds
GAACTGGTGGAGAAGTCGGCGAAGCGCTTGCGCGGGGCCGTCCTGATCGGTGCCGACCGCGCCCTGATCCGCGAAGCCCTGGCGCGACACGCCCCGGAGGTACCGGTGGTGGACCTCGACCGGACCGACACTGGGGCGATGTCCGAGGCGGTC (double strand) [ftsW promoter probe]	binds
GACATACCCACTCGGACTACTCCAGTCGACACGCCGAGGGTTTGCCCCTTTTGTAGGGATATCGACCCGTTCGACGACAGCTGGAGGCACCGTGCGGCCGGGAGGCTACGACTACGACAC (double strand) [cslA promoter probe]	binds
GACGTGCCGCGCATCCGGGCGGCCACGGACCTGGGCAACGTCCCGATGGCCGCGGCGTTCGCCCGGGCGGGTTACGACGCCTTCGAGCACGCGATCAACTACGTGTGGGACGCGCCGGGCGTGGCGGGTCCCTGACTGCCAGGATGGGGGCGTAGGTCCGTCGACGAGGGGATTTGGCGTGCTCTTCGAGGTGTGGGC (double strand) [treZ promoter probe]	binds
GCGCCGCAGCCCGGAGAAACCGAGGGCTTCTCCCCGCAGCGTCATTTGGAGGTTTTGGGACGACACGCCCCTAAACTCGCCCTGGACGTGGTGCTGGCCGACGAGGCCGCCGTGCCCGACCGCGAGTCCCTCGCCGACGCCGCCAAGCGGCTCGGTGCCGC (double strand) [whiAp2 promoter probe]	binds
GCTGCTCCACTCCACCAACGTAGGTCGGGAAGGGGCGGGAACCGGGTCCGGGACACGCCCTTTGGGTGACCTTGCCCCCGAGAACGACCGAAGGTCGGCGTCG (double strand) [sven4724-sven4725 intergenic probe]	binds
GGCGGTACGGGAGCGGCCGACGCAGACTGGGAGGAGCGCCCTCTTTCCCGGAGTGCTGGAGGAACCACGGTATGACCGACCTCGCCATCGAGACCGAGGGCCTGGTCAAGGTCTTCGGCAGCAACCGCGCCGTCGACGGGATCGACCTCCGCGTCCCCGCCGGAATCGTCTACGGAGTCCTTGGCCCCAACGGCGC (double strand) [sven3535 promoter probe]	no binding
GTCTCGCGCATGTGAGGGGCGGTGCCGCGCGGGGCACCGGGCCCGGCGGGCCCGGGCCGCACCGACGCGCCGGAATGATCGCTAAGAGGAAATTGTCCGATTAGCGCGTATCGTCGGCCCATGCCCACGCCATACGGATCCCGCGGCGGCATGGCGTTCAGCGCGGACGAGCTGCGTGTGCTCCGCCGTGCCCTCGCCATC (double strand) [sven3229 promoter probe]	no binding
